From the supplement of paper PMC12042874
± gives the uncertainty stated by the source.

Assay: amyloid nucleation score (Sup35N fusion, yeast selection) (log enrichment); library NNK1; higher = more nucleation; inactive = no reads after selection
How it was run: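 Peptides of 20 random codons, each fused to Sup35N, were expressed in psi-negative yeast. Cells were induced with 100 μM copper sulfate for 24 hours and grown 7 days at 30°C on medium lacking adenine and uracil, and plasmid inserts before and after selection were Illumina-sequenced. Nucleation scores are DiMSum log enrichments of output over input reads, centred on the mode score of non-aggregating sequences, and sequences under 100 input reads were excluded.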

Substance | amyloid nucleation score
RQDQLFPICEDSTT | 0.612 ± 0.97
RQDVT | 0.281 ± 0.61
RQGLSAGSRYIK | -0.311 ± 0.69
RQIGTAFSDYLHGWCVFSFR | 3.88 ± 0.11
RQSWPGYFVCSYQCVRMGNR | -0.084 ± 0.3
RRDSYFCVWYFWGPDEGCPF | 4.46 ± 0.1
RRFPRMWGLCMSLFRSHCGS | 1.92 ± 0.27
RRIGIGYGLLCRAWAYLYVL | -0.477 ± 1.2
RRLLTCGGSPYRQLR | -0.078 ± 0.98
RRLSMIMLFNPLSIWCFAQS | 0.408 ± 0.5
RRSCRRTGGTSASKPSRQAF | 0.013 ± 0.45
RRSLYYGITIN | -0.337 ± 0.32
RRTTSMERYCR | 0.291 ± 0.43
RRWALRYINSATLFFLKVIG | -0.661 ± 0.93
RRWFYLGAFVYKSNTIDVGV | -0.214 ± 0.35
RRYCKLLVWRQLTSYHGRQA | 0.527 ± 0.49
RRYRSWGGV | -0.267 ± 0.35
RSADTLVEKNLIYGRWVRKS | 0.93 ± 1
RSCELGFDPVKKFFRIRIWG | -0.006 ± 0.47
RSDNSCRRLLEDWRSWRRAV | inactive
RSELI | -0.211 ± 0.36
RSFDLRSSTTLERLFFHMCA | -0.493 ± 0.88
RSGLCFMCSFEKSVSSR | 0.255 ± 0.3
RSHGKAEFEHVGLKFIAG | -0.903 ± 1.7
RSICWKSFRRIFFDRW | 0.19 ± 0.85

Substance | amyloid nucleation score
RSIFSWSTR | 0.641 ± 0.42
RSIPSMEVSVMK | -0.805 ± 0.73
RSLCHAQRFGWMC | -1.7 ± 1
RSNNSFCIPLSFMCYVYQAT | -0.172 ± 1.6
RSSMYKYV | 0.523 ± 0.26
RSSRAPWRSSCGGMF | -0.494 ± 0.48
RSVAHSYT | 0.661 ± 0.54
RSVRLMNRVSGWNMWWKDGT | -0.535 ± 1.2
RSYSSLSR | 0.792 ± 0.58
RTGRAYLWGSWSLEHHNLGG | inactive
RTKCKASISNIPTRWYDP | -0.469 ± 1.2
RTNSSSVCSILKGLSQ | -0.535 ± 1.1
RTPCLSESGPFSGFQHPGDI | -0.66 ± 1.2
RTSSIMSFPQCSCYSRRGVL | 1.73 ± 0.33
RVDTL | 0.694 ± 1.1
RVDTLYKVHLSKIRPSGGST | -0.096 ± 0.75
RVFRASNDR | 0.241 ± 1.1
RVIAYKANPVNTFSYPVWAE | -0.133 ± 0.44
RVLCICFEYINHRAGGSKSF | -0.08 ± 0.95
RVPCCGSYKGVFYEFTFSRG | 0.957 ± 0.49
RVSCFRTRDRIFGVFTQSQV | -0.314 ± 1.2
RVSRFELAIVSVEGSYWVPE | 0.607 ± 0.36
RVVVCRWVDRYGIAASGAIT | 0.643 ± 0.54
RVWYGFYCELITTPRFASGV | -0.322 ± 1.7
RWAWVDYNLCRVCLTKYS | -0.161 ± 0.58

Substance | amyloid nucleation score
RWFRNAIGGIL | -0.586 ± 0.59
RWLPPLRVRIRDHTHIITDK | 2.22 ± 0.17
RWMPFISLSVNLTGNYLIRL | 2.25 ± 0.27
RWNRSSDTCLCLHSMMLT | -0.518 ± 1.1
RWPRCYYNLGKCTDISLTWS | 2.56 ± 0.18
RWSAFSVYAWGAYKLRC | 2.41 ± 0.11
RYARLMYASACCSSC | -0.404 ± 0.52
RYCHVLIVIAQANQSFKDVQ | 7.725 ± 0.056
RYCYRGHMFLFQTSLFKCSS | -0.354 ± 0.83
RYHSPEYTARTLMG | 0.264 ± 0.44
RYISYAKCRNYNGLIMYYLY | 2.52 ± 0.11
RYRWRL | inactive
RYRWTSLVFLGMTQH | 0.75 ± 0.38
RYSCY | 0.152 ± 0.6
RYSSVKLEMKSQVVIELTLI | 1.09 ± 0.76
RYVETNSGAE | 0.669 ± 0.43
RYYCFPTQLIHLTTT | -0.755 ± 0.55
RYYLMVFFKWIFEIWKMVLK | -0.646 ± 0.28
RYYMGTIWILGEFGSLFWMM | 0.06 ± 0.39
SACFVARSVVCDWGCAGYMF | 2.67 ± 0.28
SACLQVWE | 0.284 ± 0.4
SACSESSVIWTNFH | 0.292 ± 0.39
SALILVFFYWA | 1.31 ± 0.3
SALLEQRLSSGLDVAISLRI | -0.368 ± 0.9
SANDFKMWGMVDKFGVMVLL | inactive

Substance | amyloid nucleation score
SAPMVFESDPREFAAGMSRL | -0.53 ± 0.39
SARRRRYGEAGSLGHELQWT | 0.675 ± 0.78
SATTIFFRYSKIREFRLVFG | inactive
SAVTDQLMV | 0.119 ± 0.45
SAWSGR | 0.104 ± 0.3
SAYSILSTMFIYFVKSQGTD | 3.38 ± 0.058
SCACYGWSVYSLGNANRVLS | 0.465 ± 0.69
SCDMYQYEIV | inactive
SCGNVGQRVVNIQYVGNSRF | 6.34 ± 0.077
SCGVLVSLFLYPKLNFGFYL | 0.419 ± 0.4
SCIVLYMKGSGISCTNYTYC | 6.094 ± 0.054
SCKYSAQNLWHLFYRNSLSS | -2.29 ± 2.1
SCLAIRTSYCNEELSIESMQ | -0.8 ± 0.55
SCLCFLNPTNFEKLLISFVP | 0.725 ± 0.53
SCNFLYGRRLFL | -0.127 ± 0.55
SCRSLDAMDKSWS | 1.5 ± 0.52
SCSGSRMRELAAVYTVIIEY | -1.04 ± 1.1
SCTCVQHPDGSYAFEIGAAN | 0.009 ± 0.96
SCVFLGSWWRCGWMPGSHVP | 1.93 ± 0.29
SCVSSLYCH | 0.057 ± 0.65
SCVYNWFIKVLPKVSTMSGD | 0.41 ± 0.52
SCYVWDCENGSTLFIFVARR | inactive
SDEMVW | 2.65 ± 0.11
SDFNNTFIYSGEKQVLISTC | -0.147 ± 0.34
SDFRMTGLLTWYRSI | -0.228 ± 0.51

Substance | amyloid nucleation score
SDHRTW | 0.743 ± 0.42
SDKEVVSLQEVHTQSEGSEG | 0.174 ± 0.27
SDPCKCTYCSYLSLDITLYA | 0.05 ± 0.23
SDRDVVRVIYNSVGGTVWFG | 1.07 ± 0.19
SDRKEA | -0.444 ± 0.69
SDRQVSSSRTYKHSTTSLGC | inactive
SDSGCEGESCQNRLISVGLL | -0.084 ± 0.46
SDVVGGYWEDKTSSYGSRLM | 0.423 ± 0.52
SDYTYAFPCMRGWCWYFAVS | -0.691 ± 1.7
SEGMCIKLPVALNYSYVHLG | 3.36 ± 0.088
SELRSWFL | -0.109 ± 1.2
SEMGINQKFLLGVQDTLHRY | -1.45 ± 1
SESSYGSSSRTTESSVCVSG | -0.008 ± 0.52
SETFKRE | -0.328 ± 0.66
SETYVLLKNPSDNIMQKWCV | 0.147 ± 0.79
SEVQAPHIRCINIRALYLRN | 2.08 ± 0.39
SEWDFGDCENFKVSYLVVTQ | -0.408 ± 0.4
SEYMLRSNIVFPRWIS | 0.35 ± 0.71
SFAII | 0.91 ± 0.3
SFCPSMSNYTCIFPSTNLTY | 7.033 ± 0.053
SFDNCLFVVVAAAIVNQPVC | 5.83 ± 0.09
SFFFSRVGSLFCLRFYDVFG | -0.858 ± 1.3
SFFRFVQNVSRSAGVSDSAM | -0.508 ± 0.42
SFGKVPFDLPKNFPRVSSVT | -0.276 ± 0.33
SFIMSNS | 0.075 ± 0.41

Substance | amyloid nucleation score
SFISKLLNYVVAFCVVCDEI | 0.127 ± 0.5
SFLCAFICHYTDVFVHLARS | 1.49 ± 0.54
SFLCCRVFLKSRRCRCGFMQ | 6.01 ± 0.046
SFLDCLRCCKCAGMR | 1.5 ± 0.18
SFMSGSFEWPRSYRALGFKA | -0.719 ± 1.2
SFMVFYNLVCLHMMSNFVAL | 0.377 ± 0.68
SFNNMANMAYYRVRGVLVL | -0.438 ± 0.6
SFNVNLGSHRDVMIVFSF | 6.24 ± 0.064
SFRSLFVFYDN | inactive
SFSEICWVVGHYMNGFSQMR | 1.89 ± 0.47
SFSVVCRLKRAFGLAVIVRR | 0.184 ± 1.2
SFVFGHIVKK | 2.72 ± 0.086
SFVIFCRKGNWEWDD | -0.671 ± 0.37
SFVIYSKKCKNGSVNTVACS | 0.142 ± 0.62
SFVVGNGYMVGWWFITAHVA | 0.499 ± 0.41
SFWNSLV | 0.468 ± 1.2
SFYYWHPIALVWYGGARYKC | 1.35 ± 0.43
SGFGYSYCTLHCRTFWCLRP | 0.972 ± 0.3
SGGPWVNCNFNT | 0.494 ± 0.47
SGIEAFNRIIGVCCVLEAGR | 3.58 ± 0.19
SGIGSMWSQLKDSV | 0.136 ± 0.59
SGKNRYIVSSCSWLWAREDL | 0.424 ± 1
SGLLVITFVNEFLYKNVYPL | 1.95 ± 0.25
SGMCTYL | 0.513 ± 0.33
SGNCQSRFVVNGNHKC | 0.371 ± 0.5

Substance | amyloid nucleation score
SGNSSFIVILNKRTFRLCRY | 1.41 ± 0.18
SGQIQFIMIR | 0.727 ± 0.67
SGRPLEYTDNGEQDRMWWQS | -0.044 ± 0.88
SGSMVRDRW | 1.83 ± 0.27
SGSQY | -1.26 ± 1.7
SGVINTAAMIRTDPWRVLDG | 0.765 ± 0.42
SGWSYRRAGRHWMAMMGNKF | -0.04 ± 0.34
SHEGIIMLMLTHQFSW | 2.07 ± 0.14
SHEGTGLGMGAVG | -0.01 ± 0.36
SHGAGYRFTEFIHHSGGLPN | 0.498 ± 0.39
SHGSTLLARYCRINGWPATP | -0.167 ± 0.71
SHIHCFFDDTTNTKKLVWPW | -0.563 ± 0.45
SHKRIWDIFNIGFHQCD | 0.048 ± 0.59
SHLCTMIGTCFL | 1.98 ± 0.13
SHNVKSWCRYSDGQKGLCKY | 1.62 ± 0.43
SHPSKRLRTSKNVCACATNP | -0.12 ± 0.4
SIEDHDYFLIAFY | -0.076 ± 1.6
SIGVGCGEVCFLYRSEPIFV | -0.04 ± 0.31
SIIFGVKTFSVFSKIYGLCW | 3.3 ± 0.067
SILISMYGGSSKKCQRFEEG | 0.977 ± 0.47
SILLWDLKANF | 0.346 ± 0.29
SILTSNMGQSHVSMDVLVVW | inactive
